Biological target: the molecule itself
Assay: small angle neutron scattering

B1: outer membrane protein OmpF (receptor)
chain: AEIYNKDGNKVDLYGKAVGLHYFSKGNGENSYGGNGDMTYARLGFKGETQINSDLTGYGQWEYNFQGNNSEGADAQTGNKTRLAFAGLKYADVGSFDYGRNYGVVYDALGYTDMLPEFGGDTAYSDDFFVGRVGGVATYRNSNFFGLVDGLNFAVQYLGKNERDTARRSNGDGVGGSISYEYEGFGIVGAYGAADRTNLQEAQPLGNGKKAEQWATGLKYDANNIYLAANYGETRNATPITNKFTNTSGFANKTQDVLLVAQYQFDFGLRPSIAYTKSKAKDVEGIGDVDLVNYFEVGATYYFNKNMSTYVDYIINQIDSDNKLGVGSDDTVAVGIVYQF
modifications: partially deuterated (d-OmpF) in the SANS samples; hydrogenous or deuterated in the neutron reflection samples
For B1, the “stoichiometry N” value was 3.

— paper PMC3249085 (The Journal of Biological Chemistry, 2011)
